The target in test [1] is Human pancreatic trypsin (Athens Research & Technology, Inc) (human) (UniProt P07477). Description: cell-based or functional assay.
The target in test [2] is trypsin (Examples 7 and 8, source not stated). Description: cell-based or functional assay.

Substance “human UTI (human urine UTI) (from UniProt P02760 206-352)” returned an IC50 of trypsin inhibition (fluorogenic substrate, enzyme activity) in test [1] of 3 nM. Further, the IC50 of inhibition of trypsin-induced IL-6 production in BEAS2B cells in test [2] stood at 0.4 µg/mL.

The values above are taken from patent publication US20220127334A1.
